Kd data for one protein are collected here from publication PMC6628679 (2019).

Usually Kd stands for the free concentration of one partner at which half of the binding sites on the other are occupied at equilibrium, for simple one-to-one binding. A high value points to lower affinity.

This data set concerns the molecule itself.

B1: PfPKG (protein)
chain: MEEDDNLKKGNERNKKKAIFSNDDFTGEDSLMEDHLELREKLSEDIDMIKTSLKNNLVCSTLNDNEILTLSNYMQFFVFKSGNLVIKQGEKGSYFFIINSGKFDVYVNDKKVKTMGKGSSFGEAALIHNTQRSATIIAETDGTLWGVQRSTFRATLKQLSNRNFNENRTFIDSVSVFDMLTEAQKNMITNACVIQNFKSGETIVKQGDYGDVLYILKEGKATVYINDEEIRVLEKGSYFGERALLYDEPRSATIIAKEPTACASICRKLLNIVLGNLQVVLFRNIMTEALQQSEIFKQFSGDQLNDLADTAIVRDYPANYNILHKDKVKSVKYIIVLEGKVELFLDDTSIGILSRGMSFGDQYVLNQKQPFKHTIKSLEVCKIALITETCLADCLGNNNIDASIDYNNKKSIIKKMYIFRYLTDKQCNLLIEAFRTTRYEEGDYIIQEGEVGSRFYIIKNGEVEIVKNKKRLRTLGKNDYFGERALLYDEPRTASVISKVNNVECWFVDKSVFLQIIQGPMLAHLEERIKMQDTKVEMDELETERIIGRGTFGTVKLVHHKPTKIRYALKCVSKRSIINLNQQNNIKLEREITAENDHPFIIRLVRTFKDSKYFYFLTELVTGGELYDAIRKLGLLSKSQAQFYLGSIILAIEYLHERNIVYRDLKPENILLDKQGYVKLIDFGCAKKVQGRAYTLVGTPHYMAPEVILGKGYGCTVDIWALGICLYEFICGPLPFGNDEEDQLEIFRDILTGQLTFPDYVTDTDSINLMKRLLCRLPQGRIGCSINGFKDIKDHPFFSNFNWDKLAGRLLDPPLVSKSETYAEDIDIKQIEEEDAEDDEEPLNDEDNWDIDF
With B1, the Kd is ~32 µM.
